Each block holds one substance with its values, some of them ahead of it.
Legend:
Assay in all cases: split reporter
[1] = molecular target: zipped β1–10 of ZipGFP with TEV cleavage sequence (E5-β1–10-K5), cleaved by co-expressed TEV protease
[2] = molecular target: zipped β1–10 of the ZipGFP caspase reporter (E5-β1–10-K5 with DEVD), cleaved upon apoptosis
[3] = molecular target: β1–10 part of ZipGFP with TEV cleavage sequence (E5-β1–10-K5), cleaved by TEV protease, purified

fold increase of green fluorescence over the uncleaved reporter [1]: 10 fold
Substance: zipped β11 of ZipGFP with TEV cleavage sequence (K5-β11-E5), cleaved by co-expressed TEV protease

fold increase of green fluorescence (normalized to mCherry) upon apoptosis [2]: 5 to 10 fold
Substance: zipped β11 of the ZipGFP caspase reporter (K5-β11-E5 with DEVD), cleaved upon apoptosis

time to half-maximal fluorescence (T1/2) after mixing [3]: 40 min
Substance: β11 part of ZipGFP with TEV cleavage sequence (K5-β11-E5), cleaved by TEV protease, purified
